B1: recombinant human IL-23R/Fc chimera (Fc fusion, UniProt Q5VWK5 24-353, looked up)
chain: GITNINCSGHIWVEPATIFKMGMNISIYCQAAIKNCQPRKLHFYKNGIKERFQITRINKTTARLWYKNFLEPHASMYCTAECPKHFQETLICGKDISSGYPPDIPDEVTCVIYEYSGNMTCTWNAGKLTYIDTKYVVHVKSLETEEEQQYLTSSYINISTDSLQGGKKYLVWVQAANALGMEESKQLQIHLDDIVIPSAAVISRAETINATVPKTIIYWDSQTTIEKVSCEMRYKATTNQTWNVKEFDTNFTYVQQSEFYLEPNIKYVFQVRCQETGKRYWQPWSSLFFHKTPETVPQVTSKAFQHDTWNSGLTVASISTGHLTSDNRGD
notes: range 24-353; bought (R&D Systems Cat. No. 1400-IR-050); also called rhIL23R-Fc; IL-23R/Fc fusion protein; not shown: human IgG1 Fc, residues 100-330

The target in assay [1] is T1, WT IL-23 cytokine (wild type p19 + p40, expressed in 293T cells) (human, UniProt Q9NPF7 20-189; P29460 23-328).
T1 construct: conditioned medium in the ELISAs; purified on HisTALON for the reporter assay; also called isolated WT IL-23 cytokine; not shown: 6xHis tag at the C-terminus
T1 sequence (looked up) 1: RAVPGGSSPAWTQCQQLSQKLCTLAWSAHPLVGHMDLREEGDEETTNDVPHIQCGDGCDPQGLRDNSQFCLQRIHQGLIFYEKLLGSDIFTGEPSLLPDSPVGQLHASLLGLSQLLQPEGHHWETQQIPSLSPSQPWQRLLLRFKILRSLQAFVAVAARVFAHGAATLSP
T1 sequence (looked up) 2: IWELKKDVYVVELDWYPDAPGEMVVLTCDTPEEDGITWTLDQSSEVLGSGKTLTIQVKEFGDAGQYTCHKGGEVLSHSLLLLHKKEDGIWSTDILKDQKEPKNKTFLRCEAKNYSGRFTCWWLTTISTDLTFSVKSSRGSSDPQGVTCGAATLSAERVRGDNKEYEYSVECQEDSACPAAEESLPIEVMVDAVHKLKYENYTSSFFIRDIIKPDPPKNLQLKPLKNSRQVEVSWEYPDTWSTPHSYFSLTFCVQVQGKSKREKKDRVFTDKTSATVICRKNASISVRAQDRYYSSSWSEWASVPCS
The assay can be described thus: ELISA of conditioned media on coated IL-23R-Fc, anti-p40 detection. (ELISA stands for enzyme-linked immunosorbent assay.)

The target in assay [2] is B1. The experiment in a line: phage display panning, protein A capture.
Assay [3] addresses B1. The assay can be described thus: competitive ELISA against IL-23 (50 ng/well) on coated IL-23R-Fc.
In assay [4] the target is B1. The experiment in a line: phage ELISA on coated IL-23R/Fc, anti-M13 detection.
The target in assay [5] is T2, human IL-23R expressed on the cell surface (human, UniProt Q5VWK5 24-629).
T2 sequence (looked up): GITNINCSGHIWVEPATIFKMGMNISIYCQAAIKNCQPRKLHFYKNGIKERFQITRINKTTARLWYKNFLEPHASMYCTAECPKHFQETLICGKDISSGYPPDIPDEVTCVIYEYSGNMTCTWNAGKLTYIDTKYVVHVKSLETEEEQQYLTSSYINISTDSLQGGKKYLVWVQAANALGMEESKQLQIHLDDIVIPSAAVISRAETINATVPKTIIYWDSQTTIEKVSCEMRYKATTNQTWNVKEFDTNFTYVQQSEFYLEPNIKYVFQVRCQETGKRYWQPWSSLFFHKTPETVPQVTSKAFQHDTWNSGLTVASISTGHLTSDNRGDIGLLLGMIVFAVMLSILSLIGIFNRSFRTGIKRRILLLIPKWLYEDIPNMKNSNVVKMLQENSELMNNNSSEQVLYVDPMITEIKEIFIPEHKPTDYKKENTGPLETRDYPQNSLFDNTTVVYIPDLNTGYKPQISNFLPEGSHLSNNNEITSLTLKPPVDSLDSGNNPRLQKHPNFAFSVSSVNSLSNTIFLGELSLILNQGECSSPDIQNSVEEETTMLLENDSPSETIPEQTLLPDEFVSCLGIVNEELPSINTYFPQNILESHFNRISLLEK
The assay can be described thus: cell-based or functional assay.

The target in assay [6] is B1. The assay can be described thus: cell-free competitive ELISA against IL-23 on coated IL-23R-Fc.
For assay [7], the target named is IL-23 receptor on Sprague Dawley rat splenocytes (rat). The assay can be described thus: cell-based or functional assay.
In assay [8] the target is T3, recombinant mouse IL-23R-Fc (mouse, UniProt Q8K4B4 24-374, limits assumed).
T3 construct: whole entry named; not shown: Fc part, not described
T3 sequence (looked up): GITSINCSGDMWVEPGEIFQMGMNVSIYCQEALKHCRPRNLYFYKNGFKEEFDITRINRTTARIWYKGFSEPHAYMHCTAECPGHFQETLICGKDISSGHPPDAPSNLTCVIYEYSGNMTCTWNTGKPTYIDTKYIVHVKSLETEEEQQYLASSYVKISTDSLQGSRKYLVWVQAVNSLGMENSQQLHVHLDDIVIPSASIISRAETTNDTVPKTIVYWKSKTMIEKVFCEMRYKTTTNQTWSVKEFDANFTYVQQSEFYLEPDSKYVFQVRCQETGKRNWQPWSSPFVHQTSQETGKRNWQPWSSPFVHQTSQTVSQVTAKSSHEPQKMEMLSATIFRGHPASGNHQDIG
The assay can be described thus: competitive ELISA against mouse IL-23 on coated mouse IL-23R-Fc.

Assay [9] addresses B1. The experiment in a line: competitive ELISA on coated IL-23R-Fc, 50 µM peptide.

Bridges are numbered along the chain shown (N, C = ends). Where no end group is shown, it is not given here.

Regarding B1, the binding result in assay [1] is reported as “binds”. On to EPFAWHAYWVRN (peptide, not shown: large carriers) [M13 phage displaying polypeptide no. 29], for which the binding result in assay [2] was “binds”.

For DQERWLSYFLGT (peptide, not shown: large carriers) [M13 phage displaying polypeptide no. 3], in assay [2], the binding result is “binds”. Broadly, the IC50 is the concentration that gives 50% inhibition. Consider NWATYWQLRHQT (also called peptide number 9) [synthetic polypeptide no. 9], for which the IC50 in assay [3] is approximately 3000 nM.

For YSWEWYATRFVQ (peptide, not shown: large carriers) [M13 phage displaying polypeptide no. 13], in [2], the binding result is “binds”.

For the molecule DDWMQYWRQQVR [synthetic polypeptide no. 27], the IC50 in [3] is approximately 1560 nM. Consider QSDTWMTYWKHH (peptide, not shown: large carriers) [M13 phage displaying polypeptide no. 7], for which, in [4], the binding result is “binds”.

On to SGASWVQYWVQR (also called peptide number 1) [synthetic polypeptide no. 1], for which, in assay [5], the “relative level of p-STAT3/STAT3 at 50 µM peptide” value is approximately 0.6 ratio; the “relative level of p-STAT3/STAT3 at 100 µM peptide” value was approximately 0.3 ratio; the “relative p-STAT3/STAT3 level at 10 µM, 5 µM and 1 µM peptide” value was more than 1.5 ratio. Also, the IC50 in assay [3] fell in the range of 6250 to 12500 nM. As to SALSWEHYWRKH (peptide, not shown: large carriers, also called no) [M13 phage displaying polypeptide no. 20], in assay [2], the binding result is given as “binds”. For the molecule HDWQTYWVTRER (peptide, not shown: large carriers) [M13 phage displaying polypeptide no. 30], the binding result in [2] is listed as “binds”. As for DSDWRWFWENHW (peptide, not shown: large carriers) [M13 phage displaying polypeptide no. 15], the binding result in assay [2] is “binds”.

Take TENWWTMVPRWM (peptide, not shown: large carriers) [M13 phage displaying polypeptide no. 2]: the binding result in assay [2] was “binds”. For AWQDVWKMHNKV (peptide, not shown: large carriers) [M13 phage displaying polypeptide no. 25], the binding result in [2] is “binds”.

B2: cyclic peptide no. 2HT AA (peptide)
peptide: AKMTWVDYWLKNCA
modifications: cyclic: head-to-tail amide bond (alanine to alanine)
notes: cyclised form of linear peptide no; also called cyclic polypeptide no; 2HT AA (Head to Tail: Alanine to Alanine)
Turning to B2, in assay [6], the IC50 turned out to be 8.1 nM. Besides, in assay [7], the “IC50, IL-17F mRNA (qRT-PCR) in rat splenocytes, 200 ng/ml IL-23” value stood at 270 nM. Moreover, in [5], the “IC50, IL-17F production (ELISA) in differentiated human Th17 cells, 1 ng/ml IL-23” value was 339 nM; the “IC50, IL-22 production (ELISA) in human PBMC, 2 ng/ml IL-23” value was 338 nM; the “IC50, cell-based DB-Luc assay” value stood at 342 nM.

B3: recombinant human IL-23 (ligand)
chain 1: RAVPGGSSPAWTQCQQLSQKLCTLAWSAHPLVGHMDLREEGDEETTNDVPHIQCGDGCDPQGLRDNSQFCLQRIHQGLIFYEKLLGSDIFTGEPSLLPDSPVGQLHASLLGLSQLLQPEGHHWETQQIPSLSPSQPWQRLLLRFKILRSLQAFVAVAARVFAHGAATLSP
chain 2: IWELKKDVYVVELDWYPDAPGEMVVLTCDTPEEDGITWTLDQSSEVLGSGKTLTIQVKEFGDAGQYTCHKGGEVLSHSLLLLHKKEDGIWSTDILKDQKEPKNKTFLRCEAKNYSGRFTCWWLTTISTDLTFSVKSSRGSSDPQGVTCGAATLSAERVRGDNKEYEYSVECQEDSACPAAEESLPIEVMVDAVHKLKYENYTSSFFIRDIIKPDPPKNLQLKPLKNSRQVEVSWEYPDTWSTPHSYFSLTFCVQVQGKSKREKKDRVFTDKTSATVICRKNASISVRAQDRYYSSSWSEWASVPCS
Consider B3, for which the “reporter luciferase activity, DB STAT3-Luc cells, 50 ng/ml” value in assay [5] is approximately 10 fold. On to MPDWHAFYLQAQ (peptide, not shown: large carriers) [M13 phage displaying polypeptide no. 6], for which the binding result in assay [4] was “binds”. As to TSWQSFWHHHNT (peptide, not shown: large carriers) [M13 phage displaying polypeptide no. 32], the binding result in [2] is on record as “binds”. For AETPSWYNYWMN (peptide, not shown: large carriers, also called nos) [M13 phage displaying polypeptide no. 4], in assay [4], the binding result was “binds”.

In the case of CAMTWQDYWLYGRC (disulfide 1-14, also called cyc23.15) [cyclic polypeptide no. 23.19], the “IC50, DB STAT3-Luc reporter cells, 50 ng/ml IL-23” value in [5] was determined as 2500 nM. In addition, the IC50 in assay [8] is 12500 nM. Take ASWEMYWATSYN (peptide, not shown: large carriers) [M13 phage displaying polypeptide no. 10]: the binding result in [4] is on record as “binds”. Turning to AMTWEDWWLYGR (also called peptide number 23) [synthetic polypeptide no. 23], the half-inhibitory concentration (IC50) in [3] lay in the range of 0 to 1560 nM.

As to AVWQNYWNEQLY (peptide, not shown: large carriers) [M13 phage displaying polypeptide no. 22], in assay [2], the binding result is “binds”. Still for that read-out and setting: under STWQEYYDVWQK (peptide, not shown: large carriers) [M13 phage displaying polypeptide no. 18] stands “binds”; under NWIDWWTQSEKH (peptide, not shown: large carriers) [M13 phage displaying polypeptide no. 19], “binds”. For the molecule NWTSQLHTGIST (peptide, not shown: large carriers, also called nos) [M13 phage displaying polypeptide no. 5], the binding result in [4] is on record as “binds”. Regarding SGASFVQYWVQR [modified synthetic polypeptide no. 1.1], the “OD450 of bound IL-23 with the peptide as competitor” value in assay [9] was not below 0.4 OD450.

On to SGASFVQYFVQR [modified synthetic polypeptide no. 1.3], for which, in assay [9], the “OD450 of bound IL-23 with the peptide as competitor” value was not below 0.4 OD450.

Take SGASWVQYFVQR [modified synthetic polypeptide no. 1.2]: in [9], the “OD450 of bound IL-23 with the peptide as competitor” value is not below 0.4 OD450.

The values are drawn from patent USRE49026 (MEDICAL DIAGNOSTIC LABORATORIES, dated 2022).
